# In PMC4043820:
# Columns and labels:
# [1] = biological target: OsWRKY53SD S43D;S72D;S77D;S89D;S96D;S108D (Oryza sativa (rice)) (UniProt A7BEY7); assay: EMSA; conditions: 12 mM HEPES-KOH pH 8.0, 60 mM KCl, 4 mM MgCl2, 1 mM EDTA, 12% glycerol, 1 mM DTT, 2.5 mM PMSF, 0.1 ug protein in 20 ul, 20 min on ice; 6% PAGE in 1x TBE at …
# [2] = biological target: OsWRKY53SA S43A;S72A;S77A;S89A;S96A;S108A (Oryza sativa (rice)) (UniProt A7BEY7); assay: EMSA; conditions: 12 mM HEPES-KOH pH 8.0, 60 mM KCl, 4 mM MgCl2, 1 mM EDTA, 12% glycerol, 1 mM DTT, 2.5 mM PMSF, 0.1 ug protein in 20 ul, 20 min on ice; 6% PAGE in 1x TBE at …
# Sequence of OsWRKY53SA S43A;S72A;S77A;S89A;S96A;S108A (Oryza sativa (rice)) (A7BEY7 entry or part of it S43A S72A S77A S89A S96A S108A): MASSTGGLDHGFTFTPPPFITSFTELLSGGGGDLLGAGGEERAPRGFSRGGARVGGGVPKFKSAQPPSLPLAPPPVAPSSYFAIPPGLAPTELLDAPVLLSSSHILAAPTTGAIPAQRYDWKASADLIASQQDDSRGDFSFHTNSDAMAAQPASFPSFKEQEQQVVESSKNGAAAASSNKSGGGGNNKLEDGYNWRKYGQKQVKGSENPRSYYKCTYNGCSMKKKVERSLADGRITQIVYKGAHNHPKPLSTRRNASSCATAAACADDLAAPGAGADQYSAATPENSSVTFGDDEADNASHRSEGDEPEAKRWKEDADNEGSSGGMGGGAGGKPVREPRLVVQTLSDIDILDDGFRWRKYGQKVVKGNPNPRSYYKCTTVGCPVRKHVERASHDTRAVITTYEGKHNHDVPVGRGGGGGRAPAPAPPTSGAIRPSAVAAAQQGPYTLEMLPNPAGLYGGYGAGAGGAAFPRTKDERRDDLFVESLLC
# Sequence of OsWRKY53SD S43D;S72D;S77D;S89D;S96D;S108D (Oryza sativa (rice)) (A7BEY7 entry or part of it S43D S72D S77D S89D S96D S108D): as the sequence (A7BEY7 entry or part of it S43A S72A S77A S89A S96A S108A) above, with A43D, A72D, A77D, A89D, A96D, A108D counted along it
sequence,measurement,setting,value
TTTGGGGATGCTTCGGCGAAGGGGGTGAGGTCAAAGCTCGTGCGGTTTGACCGGTCAGACGAGGCGGCTGAGGCTCGCGC (double strand) [W-box probe (W)],binding,[1],binds
same,binding,[2],binds
